Test results from article PMC7367873, “Dissecting the sequence determinants for dephosphorylation by the catalytic subunits of phosphatases PP1 and PP2A” (Nature Communications, 2020).

Tests used:
[1] = tested on: GFP-14-3-3β and its binding proteins; test: GFP-14-3-3β co-IP with LC-MS/MS label-free quantification, untreated versus PP1c-treated; set-up: species or system human; settings: PP1 vs untreated; LFQ intensities, replicates 1-3
[2] = tested on: GFP-14-3-3β; test: GFP-14-3-3β co-IP with LC-MS/MS, untreated GFP-14-3-3β versus GFP control (14-3-3 interactome); type: binding, human; settings: untreated vs GFP; LFQ intensities, replicates 1-3

Row | Molecule | Difference (log2), PP1 vs untreated [1] | Difference (log2), untreated vs GFP [2]
1 | MAP3K2 (protein, UniProt Q9Y2U5 1-619, looked up) Mitogen-activated protein …: MDDQQALNSIMQDLAVLHKASRPALSLQETRKAKSSSPKKQNDVRVKFEHRGEKRILQFPRPVKLEDLRSKAKIAFGQSMDLHYTNNELVIPLTTQDDLDKAVELLDRSIHMKSLKILLVINGSTQATNLEPLPSLEDLDNTVFGAERKKRLSIIGPTSRDRSSPPPGYIPDELHQVARNGSFTSINSEGEFIPESMDQMLDPLSLSSPENSGSGSCPSLDSPLDGESYPKSRMPRAQSYPDNHQEFSDYDNPIFEKFGKGGTYPRRYHVSYHHQEYNDGRKTFPRARRTQGTSLRSPVSFSPTDHSLSTSSGSSIFTPEYDDSRIRRRGSDIDNPTLTVMDISPPSRSPRAPTNWRLGKLLGQGAFGRVYLCYDVDTGRELAVKQVQFDPDSPETSKEVNALECEIQLLKNLLHERIVQYYGCLRDPQEKTLSIFMEYMPGGSIKDQLKAYGALTENVTRKYTRQILEGVHYLHSNMIVHRDIKGANILRDSTGNVKLGDFGASKRLQTICLSGTGMKSVTGTPYWMSPEVISGEGYGRKADIWSVACTVVEMLTEKPPWAEFEAMAAIFKIATQPTNPKLPPHVSDYTRDFLKRIFVEAKLRPSADELLRHMFVHYH | -1.618 log2 | 6.201 log2
2 | MITF (protein, UniProt O75030 1-526, looked up) Microphthalmia-associated …: MQSESGIVPDFEVGEEFHEEPKTYYELKSQPLKSSSSAEHPGASKPPISSSSMTSRILLRQQLMREQMQEQERREQQQKLQAAQFMQQRVPVSQTPAINVSVPTTLPSATQVPMEVLKVQTHLENPTKYHIQQAQRQQVKQYLSTTLANKHANQVLSLPCPNQPGDHVMPPVPGSSAPNSPMAMLTLNSNCEKEGFYKFEEQNRAESECPGMNTHSRASCMQMDDVIDDIISLESSYNEEILGLMDPALQMANTLPVSGNLIDLYGNQGLPPPGLTISNSCPANLPNIKRELTACIFPTESEARALAKERQKKDNHNLIERRRRFNINDRIKELGTLIPKSNDPDMRWNKGTILKASVDYIRKLQREQQRAKELENRQKKLEHANRHLLLRIQELEMQARAHGLSLIPSTGLCSPDLVNRIIKQEPVLENCSQDLLQHHADLTCTTTLDLTDGTITFNNNLGTGTEANQAYSVPTKMGSKLEDILMDDTLSPVGVTDPLLSSVSPGASKTSSRRSSMSMEETEHTC | -1.637 log2 | 4.611 log2
3 | ZAK (protein, UniProt Q9NYL2 2-800, looked up) Mitogen-activated protein …: SSLGASFVQIKFDDLQFFENCGGGSFGSVYRAKWISQDKEVAVKKLLKIEKEAEILSVLSHRNIIQFYGVILEPPNYGIVTEYASLGSLYDYINSNRSEEMDMDHIMTWATDVAKGMHYLHMEAPVKVIHRDLKSRNVVIAADGVLKICDFGASRFHNHTTHMSLVGTFPWMAPEVIQSLPVSETCDTYSYGVVLWEMLTREVPFKGLEGLQVAWLVVEKNERLTIPSSCPRSFAELLHQCWEADAKKRPSFKQIISILESMSNDTSLPDKCNSFLHNKAEWRCEIEATLERLKKLERDLSFKEQELKERERRLKMWEQKLTEQSNTPLLPSFEIGAWTEDDVYCWVQQLVRKGDSSAEMSVYASLFKENNITGKRLLLLEEEDLKDMGIVSKGHIIHFKSAIEKLTHDYINLFHFPPLIKDSGGEPEENEEKIVNLELVFGFHLKPGTGPQDCKWKMYMEMDGDEIAITYIKDVTFNTNLPDAEILKMTKPPFVMEKWIVGIAKSQTVECTVTYESDVRTPKSTKHVHSIQWSRTKPQDEVKAVQLAIQTLFTNSDGNPGSRSDSSADCQWLDTLRMRQIASNTSLQRSQSNPILGSPFFSHFDGQDSYAAAVRRPQVPIKYQQITPVNQSRSSSPTQYGLTKNFSSLHLNSRDSGFSSGNTDTSSERGRYSDRSRNKYGRGSISLNSSPRGRYSGKSQHSTPSRGRYPGKFYRVSQSALNPHQSPDFKRSPRDLHQPNTIPGMPLHPETDSRASEEDSKVSEGGWTKVEYRKKPHRPSPAKTNKERARGDHRGWRNF | -1.506 log2 | 2.661 log2
4 | SH3PXD2A (protein, UniProt Q5TCZ1 1-1133, looked up) SH3 and PX domain-containing …: MLAYCVQDATVVDVEKRRNPSKHYVYIINVTWSDSTSQTIYRRYSKFFDLQMQLLDKFPIEGGQKDPKQRIIPFLPGKILFRRSHIRDVAVKRLKPIDEYCRALVRLPPHISQCDEVFRFFEARPEDVNPPKEDYGSSKRKSVWLSSWAESPKKDVTGADATAEPMILEQYVVVSNYKKQENSELSLQAGEVVDVIEKNESGWWFVSTSEEQGWVPATYLEAQNGTRDDSDINTSKTGEVSKRRKAHLRRLDRRWTLGGMVNRQHSREEKYVTVQPYTSQSKDEIGFEKGVTVEVIRKNLEGWWYIRYLGKEGWAPASYLKKAKDDLPTRKKNLAGPVEIIGNIMEISNLLNKKASGDKETPPAEGEGHEAPIAKKEISLPILCNASNGSAVGVPDRTVSRLAQGSPAVARIAPQRAQISSPNLRTRPPPRRESSLGFQLPKPPEPPSVEVEYYTIAEFQSCISDGISFRGGQKAEVIDKNSGGWWYVQIGEKEGWAPASYIDKRKKPNLSRRTSTLTRPKVPPPAPPSKPKEAEEGPTGASESQDSPRKLKYEEPEYDIPAFGFDSEPELSEEPVEDRASGERRPAQPHRPSPASSLQRARFKVGESSEDVALEEETIYENEGFRPYAEDTLSARGSSGDSDSPGSSSLSLTRKNSPKSGSPKSSSLLKLKAEKNAQAEMGKNHSSASFSSSITINTTCCSSSSSSSSSLSKTSGDLKPRSASDAGIRGTPKVRAKKDADANAGLTSCPRAKPSVRPKPFLNRAESQSQEKMDISTLRRQLRPTGQLRGGLKGSKSEDSELPPQTASEAPSEGSRRSSSDLITLPATTPPCPTKKEWEGPATSYMTCSAYQKVQDSEISFPAGVEVQVLEKQESGWWYVRFGELEGWAPSHYLVLDENEQPDPSGKELDTVPAKGRQNEGKSDSLEKIERRVQALNTVNQSKKATPPIPSKPPGGFGKTSGTPAVKMRNGVRQVAVRPQSVFVSPPPKDNNLSCALRRNESLTATDGLRGVRRNSSFSTARSAAAEAKGRLAERAASQGSDSPLLPAQRNSIPVSPVRPKPIEKSQFIHNNLKDVYVSIADYEGDEETAGFQEGVSMEVLERNPNGWWYCQILDGVKPFKGWVPSNYLEKKN | -1.555 log2 | 3.934 log2
5 | ABLIM1 (protein, UniProt O14639 1-778, looked up) Actin-binding LIM protein 1: MPAFLGLKCLGKLCSSEKSKVTSSERTSARGSNRKRLIVEDRRVSGTSFTAHRRATITHLLYLCPKDYCPRGRVCNSVDPFVAHPQDPHHPSEKPVIHCHKCGEPCKGEVLRVQTKHFHIKCFTCKVCGCDLAQGGFFIKNGEYLCTLDYQRMYGTRCHGCGEFVEGEVVTALGKTYHPNCFACTICKRPFPPGDRVTFNGRDCLCQLCAQPMSSSPKETTFSSNCAGCGRDIKNGQALLALDKQWHLGCFKCKSCGKVLTGEYISKDGAPYCEKDYQGLFGVKCEACHQFITGKVLEAGDKHYHPSCARCSRCNQMFTEGEEMYLQGSTVWHPDCKQSTKTEEKLRPTRTSSESIYSRPGSSIPGSPGHTIYAKVDNEILDYKDLAAIPKVKAIYDIERPDLITYEPFYTSGYDDKQERQSLGESPRTLSPTPSAEGYQDVRDRMIHRSTSQGSINSPVYSRHSYTPTTSRSPQHFHRPGNEPSSGRNSPLPYRPDSRPLTPTYAQAPKHFHVPDQGINIYRKPPIYKQHAALAAQSKSSEDIIKFSKFPAAQAPDPSETPKIETDHWPGPPSFAVVGPDMKRRSSGREEDDEELLRRRQLQEEQLMKLNSGLGQLILKEEMEKESRERSSLLASRYDSPINSASHIPSSKTASLPGYGRNGLHRPVSTDFAQYNSYGDVSGGVRDYQTLPDGHMPAMRMDRGVSMPNMLEPKIFPYEMLMVTNRGRNKILREVDRTRLERHLAPEVFREIFGMSIQEFDRLPLWRRNDMKKKAKLF | -1.4799 log2 | 3.166 log2
6 | NOP2 (protein, UniProt P46087 1-812, looked up) 28S rRNA …: MGRKLDPTKEKRGPGRKARKQKGAETELVRFLPAVSDENSKRLSSRARKRAAKRRLGSVEAPKTNKSPEAKPLPGKLPKGISAGAVQTAGKKGPQSLFNAPRGKKRPAPGSDEEEEEEDSEEDGMVNHGDLWGSEDDADTVDDYGADSNSEDEEEGEALLPIERAARKQKAREAAAGIQWSEEETEDEEEEKEVTPESGPPKVEEADGGLQINVDEEPFVLPPAGEMEQDAQAPDLQRVHKRIQDIVGILRDFGAQREEGRSRSEYLNRLKKDLAIYYSYGDFLLGKLMDLFPLSELVEFLEANEVPRPVTLRTNTLKTRRRDLAQALINRGVNLDPLGKWSKTGLVVYDSSVPIGATPEYLAGHYMLQGASSMLPVMALAPQEHERILDMCCAPGGKTSYMAQLMKNTGVILANDANAERLKSVVGNLHRLGVTNTIISHYDGRQFPKVVGGFDRVLLDAPCSGTGVISKDPAVKTNKDEKDILRCAHLQKELLLSAIDSVNATSKTGGYLVYCTCSITVEENEWVVDYALKKRNVRLVPTGLDFGQEGFTRFRERRFHPSLRSTRRFYPHTHNMDGFFIAKFKKFSNSIPQSQTGNSETATPTNVDLPQVIPKSENSSQPAKKAKGAAKTKQQLQKQQHPKKASFQKLNGISKGADSELSTVPSVTKTQASSSFQDSSQPAGKAEGIREPKVTGKLKQRSPKLQSSKKVAFLRQNAPPKGTDTQTPAVLSPSKTQATLKPKDHHQPLGRAKGVEKQQLPEQPFEKAAFQKQNDTPKGPQPPTVSPIRSSRPPPAKRKKSQSRGNSQLLLS | -1.5353 log2 | 2.385 log2
7 | RIN1 (protein, UniProt Q13671 1-783, looked up) Ras and Rab interactor 1: MESPGESGAGSPGAPSPSSFTTGHLAREKPAQDPLYDVPNASGGQAGGPQRPGRVVSLRERLLLTRPVWLQLQANAAAALHMLRTEPPGTFLVRKSNTRQCQALCMRLPEASGPSFVSSHYILESPGGVSLEGSELMFPDLVQLICAYCHTRDILLLPLQLPRAIHHAATHKELEAISHLGIEFWSSSLNIKAQRGPAGGPVLPQLKARSPQELDQGTGAALCFFNPLFPGDLGPTKREKFKRSFKVRVSTETSSPLSPPAVPPPPVPVLPGAVPSQTERLPPCQLLRRESSVGYRVPAGSGPSLPPMPSLQEVDCGSPSSSEEEGVPGSRGSPATSPHLGRRRPLLRSMSAAFCSLLAPERQVGRAAAALMQDRHTAAGQLVQDLLTQVRAGPEPQELQGIRQALSRARAMLSAELGPEKLLSPKRLEHVLEKSLHCSVLKPLRPILAARLRRRLAADGSLGRLAEGLRLARAQGPGAFGSHLSLPSPVELEQVRQKLLQLLRTYSPSAQVKRLLQACKLLYMALRTQEGEGAGADEFLPLLSLVLAHCDLPELLLEAEYMSELLEPSLLTGEGGYYLTSLSASLALLSGLGQAHTLPLSPVQELRRSLSLWEQRRLPATHCFQHLLRVAYQDPSSGCTSKTLAVPPEASIATLNQLCATKFRVTQPNTFGLFLYKEQGYHRLPPGALAHRLPTTGYLVYRRAEWPETQGAVTEEEGSGQSEARSRGEEQGCQGDGDAGVKASPRDIREQSETTAEGGQGQAQEGPAQPGEPEAEGSRAAEE | -1.475 log2 | 6.141 log2
